# Test results from patent publication US20250051443A1 (NATIONAL RESEARCH COUNCIL OF CANADA, published 2025).
# Numbering of substitutions follows the chain as printed.
# B1: F282-2D5 (antibody, V domains shown)
# VH: QVQLQQPGTELVKPGASVKLSCKASGYTFTSYWMHWVKQRPGQGLEWIGNINPSNGGTNYNENFKTKATLTVDKSSSTAYMQLSSLTSEDSAVYYCARDRSGQYYFDYWGQGTTLTVSS
# VL: DIVMSQSPSSLAVSAGEKVTMSCKSSQSLLNSRTRKNYLAWYQQKPGQSPKLLIYWASTRESGVPDRFTGSGSGTDFTLTISSVQAEDLAVYYCIQSYHLRTFGGGTILEIK
# notes: also called F282-2D5-2
# B2: F332-1C9 (antibody, mouse IgG2a, V domains shown)
# VH: QVQLQQPGAELGKPGTSVNLSCKASGYTFTSYWMHWVKQRPGQGLDWIGNINPNSGTTNYNEKFKSKATLTVDKSSSTAYMQLSTLTSEDSAVYYCTRDISGQYYFDYWGQGTSLTVSS
# VL: B1 VL with T80I, I95K, H99S, I108K
# notes: Sister clones 1A10, 5H8, 8B11 share the same entries; also called F332-1C9-2; F332-1C9 (1A10, 5H8, 8B11)
# B3: F332-4D6 (antibody, mouse IgG2a, V domains shown)
# VH: B2 VH with P7S, N19K, M34I, D46E, T57S, S66R, V72A, S91F, I100T, S114T
# VL: B1 VL with L52V, I95K, I108K
# notes: also called F332-4D6-2; F322-4D6
# B4: F332-3E9 (antibody, mouse IgG2a, V domains shown)
# VH: QVQLQQPGAELGKPGTSVKLSCKASGYTFTSYWIHWLKQRPGQGLEWIGNINPNGGSINCNEKFTTKATLTIDKSSSTAYMQLSTLTSEDFAVYYCTRDTSGQYYFDYWGQGTTLTVSS
# VL: B1 VL with V3M, I95T, I108K
# notes: also called F332-3E9-2; F332-3E9 (12G4)
# B5: F332-1E2 (antibody, mouse IgG2a, V domains shown)
# VH: B4 VH with L37V, I48V, G55S, C60Y, T65K, T66N, I72V
# VL: B1 VL with K18R, I108K
# notes: Sister clone 8C5 shares the same entries; also called F332-1E2-2; F332-1E2 (8C5)
# B6: F332-7C9 (antibody, mouse IgG2a, V domains shown)
# VH: QVQLQQSGPELVKPGASVRISCKASGYTFTSHYLHWVKQRPGQGFEWIGWIYPGDGNTRYNEKFKDRATLTADKSSSTAYLHLSSLTSEDSAVYFCARDAGYYFDYWGQGTTLAVSS
# VL: B1 VL with P50L, L52V, I95K, H99S, I108K
# notes: also called F332-7C9-2; F332-7C9 (5C7, 7D10)
# B7: F332-7C5 (antibody, mouse IgG2a, V domains shown)
# VH: QVQLQQPGAELGKPGTSVKLSCKASGYTFTSYWMHWVKQRPGQGLEWIGNINPSSGITNYNERFKNKATLTVDKSSTTAYMQLSILTSEDSAVYYCSRDISGQYYFNFWGQGTTLTVSS
# VL: B1 VL with S71T, I95K, H99N, I108K
# notes: also called F332-7C5-2; F332-7C5 (5E12, 10A8)
# B8: F332-5F2 (antibody, mouse IgG2b, V domains shown)
# VH: B2 VH with N19K, D46E, S55G, T57D, T58S, Y108F, S118F
# VL: B1 VL with V3L, K18Q, Y55F, E61K, D76Y, I95T, H99N, I108K
# notes: also called F332-5F2-2; F332-5F2 (6G8, 13A3)
# B9: F332-6D7 (antibody, mouse IgG2a, V domains shown)
# VH: B2 VH
# VL: B1 VL with I95K, H99S, T107S, I108K
# notes: also called F332-6D7-2; F332-6D7 (7G4)
# Biological target: T1, Cynomolgus CD3 (Cynomolgus, UniProt Q95LI5 22-198; Q95LI7 23-181; Q95LI8 22-171)
# T1 construct: whole, on cells; also called CD3 on Cynomolgus PBMCs; CD3 on HSC-F Cynomolgus T cell line
# T1 sequence (Q95LI5 22-198, chain 1 of 3): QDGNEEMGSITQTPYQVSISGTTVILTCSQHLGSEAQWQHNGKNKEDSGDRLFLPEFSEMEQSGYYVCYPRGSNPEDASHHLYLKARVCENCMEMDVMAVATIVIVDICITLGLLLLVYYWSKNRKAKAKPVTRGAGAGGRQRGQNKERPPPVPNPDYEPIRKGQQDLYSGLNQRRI
# T1 sequence (Q95LI7 23-181, chain 2 of 3): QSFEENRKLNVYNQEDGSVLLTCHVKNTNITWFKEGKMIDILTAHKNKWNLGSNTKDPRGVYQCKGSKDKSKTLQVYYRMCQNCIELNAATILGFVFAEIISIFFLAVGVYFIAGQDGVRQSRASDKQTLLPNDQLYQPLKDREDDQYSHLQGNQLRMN
# T1 sequence (Q95LI8 22-171, chain 3 of 3): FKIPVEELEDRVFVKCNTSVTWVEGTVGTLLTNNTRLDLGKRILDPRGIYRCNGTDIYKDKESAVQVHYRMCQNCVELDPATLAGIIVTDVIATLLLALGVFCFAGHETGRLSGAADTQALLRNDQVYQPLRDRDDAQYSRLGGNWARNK
# Experiment: apparent KD (KDapp), flow cytometry titration on fresh cynomolgus PBMCs
# Method: (§1) To characterize potential cross-reactivity of the anti-human CD3 mAbs to NHP T cells, dose response flow cytometry titration studies were performed on both freshly obtained Cynomolgus PBMCs (Comparative Medicine and Animal Resources Centre—McGill University) or the Cynomolgus derived T cell line, HSC-F (Non-Human Primate Reagent Resource—NIH). Binding studies on fresh Cynomolgus PBMCs was performed on a subset of anti-CD3 mAbs (FIG. 4) whereas the Herpesvirus saimiri immortalized Cynomolgus T cell line HSC-F was employed for further evaluations (FIGS. 5A to 5C). KDapp values were calculated using a non-linear regression model of one-site binding with Hill slope (GraphPad Prism) and tabulated (Table 3b). Similar KDapp values for anti-CD3 mAb 1E2 obtained from binding to fresh Cynomolgus PBMCs (KDapp=0.28 nM) or the HSC-F T cell line (KDapp=0.39 nM) indicated the HSC-F cell line was a suitable surrogate for ex vivo NHP T cells.
# Cynomolgus PBMCs were obtained from fresh ex vivo peripheral blood via density centrifugation and cultured overnight at 37° C./5% CO₂ in the presence of human recombinant IL2 (20 IU/mL; Novartis). Starting from 100 nM, graded doses of the anti-CD3 mAbs were incubated with 100K NHP PBMCs for 0.5 hours at 4° C. in flow staining buffer (SB; PBS/1% BSA/0.01% NaN3) in 96 w V-bottom plates. Following plate washing with SB (150 μL), cell pellets were resuspended in a 5 µg/mL solution of goat (Fab′)₂ anti-mouse IgG (H+L)− APC secondary antibody in SB, incubated at 4° C. (30 min.), washed 1× with SB, and resuspended for flow analysis. The commercial NHP cross-reactive SP34.2 anti-CD3 mAb (BD Biosciences), anti-human OKT-3 IgG2a (Biolegend—data not shown) and non-specific mIgG were employed as controls. 20K live events were acquired on a BD LSRFortessa flow analyzer and mean fluorescence intensities (MFI) calculated after subtraction of secondary antibody alone values. Using GraphPad Prism software, the data were analyzed using a one site specific binding with Hill slope non-linear regression model to calculate KDapp and BMax values (See Table 2).
row,Kd [pM],Binder
1,110,B1
2,250,B2
3,150,B3
4,210,B4
5,280,B5

# Biological target: T1, Cynomolgus CD3
# Experiment: apparent KD (KDapp), flow cytometry titration on cynomolgus HSC-F T cell line
# Method: as §1
# HSC-F T cells obtained from the Non-Human Primate Reagent Resource (NIH) were maintained in culture in RPMI media containing 20% FBS and 40 IU/mL recombinant human IL2. 100K HSC-F cells in logarithmic cell growth were treated with graded doses of the anti-CD3 mAbs starting at 100 nM in staining buffer (SB; PBS/1% BSA/0.01% NaN3) for 2 hours at 4° C. in 96 w V-bottom plates. Following plate washing with SB, the cell pellets were resuspended with 25 μL of goat (Fab′)₂ anti-mouse IgG (H+L)− APC secondary antibody (final 5 μg/mL), incubated for 30 minutes at 4° C., followed by flow cytometry analysis. The commercial NHP cross-reactive SP34.2 anti-CD3 mAb (BD Biosciences), recombinant anti-human OKT-3 IgG2b (in house produced) and non-specific mIgG were employed as controls. 20K live events were acquired on a BD LSRFortessa flow analyzer and mean fluorescence intensities (MFI) calculated after subtraction of secondary antibody alone values. Using GraphPad Prism software, the data were analyzed using a one site specific binding with Hill slope non-linear regression model to calculate KDapp and BMax values (See Table 2).
row,Kd [pM],Binder
1,360,B6
2,370,B7
3,400,B8
4,390,B5
5,270,B9

# Biological target: T1, Cynomolgus CD3
# Experiment: apparent KD (KDapp), flow cytometry titration on fresh cynomolgus PBMCs; second value in brackets, not explained
row,Kd [pM],Binder
1,260,B2
